Data on 8 molecules can be found in patent US20240294593A1 (Genentech, published 2024).

Assay [1] has as its target T1, human PD-1-His (human, UniProt Q15116 25-167, limits assumed).
T1 construct: Antigen of the Octet assays; not shown: His tag
The assay can be described thus: Octet. Background: BLI is a label-free optical method that tracks binding on a fibre tip over time.

Assay [2] addresses T1, human PD-1-His. The assay can be described thus: Octet (BLI), AHC biosensors capture the bivalent mAb, dipped into multiple concentrations of PD-1; KDapp per legend.
In assay [3] the target is T1, human PD-1-His. The assay can be described thus: Octet (BLI), AHC capture of the bivalent mAb, PD-1 in solution.

T1 sequence (Q15116 25-167 limits assumed): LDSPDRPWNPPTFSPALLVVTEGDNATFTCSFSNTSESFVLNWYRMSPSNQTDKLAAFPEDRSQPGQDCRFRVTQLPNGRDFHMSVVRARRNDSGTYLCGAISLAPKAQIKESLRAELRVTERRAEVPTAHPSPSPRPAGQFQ

B1: H1.93_L1 (antibody, V domains shown)
VH: EVQLVESGGGLVQPGGSLRLSCAASGFTFSSFGMHWVRQAPGKGLEWVSYISSGSSIWYYADSVKGRFTISRDNAKNSLYLQMNSLRAEDTAVYYCARGGRLVWSPDYWGQGTLVTVSS
VL: DIVMTQSPDSLAVSLGERATINCKSSQSLLNSGNQKNYLTWYQQKPGQPPKLLIYWASTRESGVPDRFTGSGSGTDFTLTISSLQAEDVAVYYCQNDYSYPFTFGSGTKLEIKR
notes: also called VH-I62W; Kabat 57
On to B1, for which, in assay [1], the Kd stood at 31 nM, the koff came to 0.00528 s⁻¹ and the kon worked out at 170000 M⁻¹ s⁻¹.

B2: H1.94_L1 (antibody, V domains shown)
VH: EVQLVESGGGLVQPGGSLRLSCAASGFTFSSFGMHWVRQAPGKGLEWVSYISSGSSIAYYADSVKGRFTISRDNAKNSLYLQMNSLRAEDTAVYYCARGGRLVWSPDYWGQGTLVTVSS
VL: DIVMTQSPDSLAVSLGERATINCKSSQSLLNSGNQKNYLTWYQQKPGQPPKLLIYWASTRESGVPDRFTGSGSGTDFTLTISSLQAEDVAVYYCQNDYSYPFTFGSGTKLEIKR
notes: also called VH-I62A; Kabat 57
In assay [1], B2 yielded a Kd of 80.6 nM, a koff of 0.0161 s⁻¹ and a kon of 200000 M⁻¹ s⁻¹.

B3: H1.190_L1.1 (XENP32806) (antibody, human IgG1, kappa, V domains shown)
VH: EVQLVESGGGLVQPGGSLRLSCAASGFTFSSFGMHWVRQAPGKGLEWVSYISSGSSIIYYADSVKGRFTISRDNAKNSLYLQMNSLRAEDTAVYYCARGGALVFSPDYWGQGTLVTVSS
VL: DIVMTQSPDSLAVSLGERATINCKSSQSLLHSGNQKNYLTWYQQKPGQPPKLLIYWASTRESGVPDRFTGSGSGTDFTLTISSLQAEDVAVYYCQNDYSYPFTFGSGTKLEIKR
notes: VH substitution R109A/W112F (Xencor #); R97A/W100F (Kabat); also called mAb C[PD1]_H1.190_L1.1_IgG1_PVA_/S267K
For the molecule B3, in assay [2], the Kd stood at 14.2 nM. In assay [3], the off-rate constant (koff) came to 0.00271 s⁻¹ and the kon came to 191000 M⁻¹ s⁻¹.

B4: H1.196_L1.1 (XENP32812) (antibody, human IgG1, kappa, V domains shown)
VH: EVQLVESGGGLVQPGGSLRLSCAASGFTFSSFGMHWVRQAPGKGLEWVSYISSGSSIIYYADSVKGRFTISRDNAKNSLYLQMNSLRAEDTAVYYCARGGRLFFSPDYWGQGTLVTVSS
VL: DIVMTQSPDSLAVSLGERATINCKSSQSLLHSGNQKNYLTWYQQKPGQPPKLLIYWASTRESGVPDRFTGSGSGTDFTLTISSLQAEDVAVYYCQNDYSYPFTFGSGTKLEIKR
notes: VH substitution V111F/W112F (Xencor #); V99F/W100F (Kabat); also called mAb C[PD1]_H1.196_L1.1_IgG1_PVA_/S267K
The molecule B4 showed a Kd in assay [2] of 44.8 nM. In assay [3], this molecule came in with an off-rate (koff) of 0.00475 s⁻¹ and an on-rate (kon) of 106000 M⁻¹ s⁻¹.

B5: H1.195_L1.1 (XENP32811) (antibody, human IgG1, kappa, V domains shown)
VH: EVQLVESGGGLVQPGGSLRLSCAASGFTFSSFGMHWVRQAPGKGLEWVSYISSGSSIIYYADSVKGRFTISRDNAKNSLYLQMNSLRAEDTAVYYCARGGRQVFSPDYWGQGTLVTVSS
VL: DIVMTQSPDSLAVSLGERATINCKSSQSLLHSGNQKNYLTWYQQKPGQPPKLLIYWASTRESGVPDRFTGSGSGTDFTLTISSLQAEDVAVYYCQNDYSYPFTFGSGTKLEIKR
notes: VH substitution L110Q/W112F (Xencor #); L98Q/W100F (Kabat); also called mAb C[PD1]_H1.195_L1.1_IgG1_PVA_/S267K
As to B5, the Kd in assay [2] came to 41.9 nM. In assay [3], the dissociation rate constant (koff) stood at 0.00436 s⁻¹ and the kon came to 104000 M⁻¹ s⁻¹.

B6: H1.99_L1 (antibody, V domains shown)
VH: EVQLVESGGGLVQPGGSLRLSCAASGFTFSSFGMHWVRQAPGKGLEWVSYISSGSSIIHYADSVKGRFTISRDNAKNSLYLQMNSLRAEDTAVYYCARGGRLVWSPDYWGQGTLVTVSS
VL: DIVMTQSPDSLAVSLGERATINCKSSQSLLNSGNQKNYLTWYQQKPGQPPKLLIYWASTRESGVPDRFTGSGSGTDFTLTISSLQAEDVAVYYCQNDYSYPFTFGSGTKLEIKR
notes: also called VH-Y63H; Kabat 58
Regarding B6, in assay [1], the Kd was found to be 261 nM, the koff amounted to 0.0651 s⁻¹ and the kon came out at 250000 M⁻¹ s⁻¹.

B7: H1.197_L1.1 (XENP32813) (antibody, human IgG1, kappa, V domains shown)
VH: EVQLVESGGGLVQPGGSLRLSCAASGFTFSSFGMHWVRQAPGKGLEWVSYISSGSSIIYYADSVKGRFTISRDNAKNSLYLQMNSLRAEDTAVYYCARGGRLLFSPDYWGQGTLVTVSS
VL: DIVMTQSPDSLAVSLGERATINCKSSQSLLHSGNQKNYLTWYQQKPGQPPKLLIYWASTRESGVPDRFTGSGSGTDFTLTISSLQAEDVAVYYCQNDYSYPFTFGSGTKLEIKR
notes: VH substitution V111L/W112F (Xencor #); V99L/W100F (Kabat); also called mAb C[PD1]_H1.197_L1.1_IgG1_PVA_/S267K
B7: the Kd in assay [2] came out at 35.4 nM. In assay [3], this molecule came in with a koff of 0.00436 s⁻¹ and a kon of 123000 M⁻¹ s⁻¹.

B8: H1.96_L1 (antibody, V domains shown)
VH: EVQLVESGGGLVQPGGSLRLSCAASGFTFSSFGMHWVRQAPGKGLEWVSYISSGSSIEYYADSVKGRFTISRDNAKNSLYLQMNSLRAEDTAVYYCARGGRLVWSPDYWGQGTLVTVSS
VL: DIVMTQSPDSLAVSLGERATINCKSSQSLLNSGNQKNYLTWYQQKPGQPPKLLIYWASTRESGVPDRFTGSGSGTDFTLTISSLQAEDVAVYYCQNDYSYPFTFGSGTKLEIKR
notes: also called VH-I62E; Kabat 57
With B8, in assay [1], the Kd was 41.6 nM, the koff was 0.00751 s⁻¹ and the kon was determined as 181000 M⁻¹ s⁻¹.

One may read the koff as a measure of how fast the partners let go of each other. High values mean fast dissociation, low ones slow dissociation. As usually defined, the kon is the rate constant with which the complex forms.
